Drawing on the RNAGym collection of RNA variant scans (doi:10.7554/elife.90254), this text covers self-cleavage for 167 variants.

B1: OR4K15 (parent)
chain: GUUAACGGUCAUAGGCCAUGGAAACUAGGAGCACCAUUUCGCUGCCAGUGAAGAAAUGAACAAAGAAAAUCUGGGCCAGGCAGGCAUCAAAAGAAAUAGUCUUGCGCUCAACCAGAAAGUCUGUAAUCAUUUUAAGGGUA

This data set covers variants of B1. As to the kind of experiment: self-cleavage, relative activity (ratio to wild type); higher = more cleavage; in vitro, sequencing; the parent is a self-cleaving ribozyme.
For C45A U131C, the self-cleavage amounted to 0.26.
For G41A A117G, the self-cleavage was 0.44.
As for G41C U139A, the self-cleavage amounted to 1.78.
Consider G44U G137U, for which the self-cleavage came to 1.87.
For the variant G41A U122G, the self-cleavage worked out at 1.51.
For the variant G44A U130C, the self-cleavage worked out at 0.64.
Regarding U43C G48A, the self-cleavage is 1.32.
G44C A52G: the self-cleavage was determined as 1.4.
For C42U A66G, the self-cleavage turned out to be 1.64.
The value for G41A A96G was 1.7; that for U43G U100C was 2.82; that for U43A G65A was 2.07.
Take U43C A94G: the self-cleavage turned out to be 1.78.
U43C A94U: the self-cleavage is 1.77.
In the case of C40A A114G, the self-cleavage came to 0.11.
In the case of U39C U130C, the self-cleavage came to 1.12.
Consider G41A A89G, for which the self-cleavage was 2.8.
Then G44U A110G, with 0.18; and G44A A111G, with 0.01.
Then U43C U108G, with 0.02; and U39G U102C, with 2.67.
Regarding U43A A86G, the self-cleavage was found to be 1.6.
For the variant C40U A118G, the self-cleavage worked out at 1.21.
The value for G41A C113U was 0.02; that for C40G A90G was 1.44.
U39C G123A: the self-cleavage came to 2.04.
Then U39C A98G, with 0.98; and C40U U108C, with 0.02; and U43A A98G, with 1.07.
Consider C45U U70C, for which the self-cleavage was found to be 0.82.
Regarding C40A A135G, the self-cleavage was 1.29.
As to C40A A51G, the self-cleavage was determined as 1.81.
As to U43A A55G, the self-cleavage was found to be 0.35.
Then U43A A55U, with 2.41.
With U43C A68U, the self-cleavage was 1.74.
Turning to U43C A68G, the self-cleavage turned out to be 1.21.
Then U43G A90G, with 0.51.
Then U43A G44A, with 1.06; and C45G U100C, with 1.37; and C40U G44A, with 2.32.
As for U43C A67G, the self-cleavage is 1.39.
Then U43A A63G, with 2.21; and U43C A98U, with 1.68; and U43A A94C, with 1.01.
With C45U A78U, the self-cleavage came to 0.33.
Regarding U39C U133C, the self-cleavage was determined as 2.27.
Then C45A A91G, with 0.61.
As for G41C A135G, the self-cleavage was 1.81.
Take C46A A56G: the self-cleavage was 1.81.
The value for G41A A67G was 1.02.
For the variant G41C A69G, the self-cleavage is 1.84.
Regarding G44U A63G, the self-cleavage turned out to be 1.46.
As for U39C A118U, the self-cleavage stood at 0.78.
U43C A59G: the self-cleavage is 0.68.
As to U39C A125U, the self-cleavage was 1.8.
Take U43C U57C: the self-cleavage was determined as 0.31.
For the variant U39C A110G, the self-cleavage is 0.14.
As for C40A A94G, the self-cleavage stood at 2.28.
Regarding U43G A69G, the self-cleavage was 2.1.
Take U43C A62C: the self-cleavage worked out at 1.57.
As for U43C A62G, the self-cleavage stood at 1.29.
On to U43C A62U, for which the self-cleavage amounted to 2.19.
Turning to U39C U70C, the self-cleavage worked out at 0.95.
On to U43A A82G, for which the self-cleavage was 0.13.
Turning to U43A A82U, the self-cleavage was found to be 0.12.
C40A A59U: the self-cleavage was determined as 2.
Then C42U A118G, with 0.7; and U43C U132C, with 1.27; and C45U A67G, with 1.94.
Take U39C U97C: the self-cleavage is 1.29.
Then U43C U100G, with 1.75; and U43C U100A, with 0.67; and C40U A51U, with 2.
For U43C A116C, the self-cleavage was determined as 0.07.
In the case of G44A A68G, the self-cleavage was 1.81.
As to U43A A62G, the self-cleavage was 0.93.
For C46A A134G, the self-cleavage stood at 1.14.
Regarding U43A A47G, the self-cleavage is 1.12.
U43C A110U: the self-cleavage came to 1.68.
Consider C45U G48A, for which the self-cleavage was 1.78.
Regarding G44A U133C, the self-cleavage is 1.78.
On to U39C C45A, for which the self-cleavage came to 0.46.
With U39C C45U, the self-cleavage stood at 1.46.
With U39C C45G, the self-cleavage came to 1.5.
As to U43G U103A, the self-cleavage came out at 1.15.
Then U43C A47U, with 0.96; and C40A A68G, with 1.61.
With G44A G74A, the self-cleavage stood at 0.17.
For the variant C46A A110U, the self-cleavage came to 1.53.
Then U43C U120A, with 2.06.
For U39C U139C, the self-cleavage is 1.9.
For the variant C40U A89G, the self-cleavage came to 1.33.
Then C40U A89U, with 1.93.
Then U39C C40U, with 1.54.
For the variant C42U A62G, the self-cleavage was found to be 1.26.
The value for U43C C113U was 0.04; that for G44A A89U was 1.59; that for G44A A89G was 1.14.
As for U43A U70A, the self-cleavage stood at 0.37.
With U43A A68U, the self-cleavage turned out to be 1.7.
On to G41A A54U, for which the self-cleavage turned out to be 1.03.
Consider U43A U72A, for which the self-cleavage is 0.2.
As to U43A U72C, the self-cleavage is 0.27.
On to U39C G99A, for which the self-cleavage is 0.3.
Consider C45A G48A, for which the self-cleavage turned out to be 1.5.
Then U43C A134U, with 2.04.
Then G41A U130G, with 1.4; and U43A A64G, with 1.49.
Then U43G A140G, with 2.62; and C40A A95G, with 2.53; and U43A U122C, with 1.85.
Consider G44A A117G, for which the self-cleavage amounted to 1.66.
As to C42U A51U, the self-cleavage came out at 1.45.
As for U43A A66G, the self-cleavage was 1.96.
With U43A A66U, the self-cleavage stood at 1.62.
For the variant G41A A116G, the self-cleavage was 0.63.
On to G41A A110C, for which the self-cleavage amounted to 0.4.
For U43C A114G, the self-cleavage was 0.55.
Turning to U43A U131C, the self-cleavage is 0.91.
Take U43C G83U: the self-cleavage is 0.67.
Take U43C G83A: the self-cleavage worked out at 1.59.
U43A A60U: the self-cleavage worked out at 1.88.
With C42U A117G, the self-cleavage stood at 2.46.
Take G41U A78G: the self-cleavage is 0.36.
The value for C40A A60G was 1.56.
For C42A A52G, the self-cleavage was 1.41.
As for U43C A118G, the self-cleavage came to 1.02.
Then U43A A117G, with 2.17; and U43A A117U, with 1.18.
With G41U A51G, the self-cleavage amounted to 1.69.
As to U43A A54G, the self-cleavage was determined as 0.83.
As for U39C A135C, the self-cleavage is 1.38.
As to G41A U103C, the self-cleavage stood at 1.76.
In the case of G41C A52G, the self-cleavage was 1.59.
For U43G A114U, the self-cleavage is 0.1.
The value for U43G A114G was 0.27; that for U43A A140G was 2.11; that for C45A A114G was 0.06.
For the variant U39G A95G, the self-cleavage stood at 1.81.
U43C C105A: the self-cleavage is 0.02.
With C40U A116C, the self-cleavage is 0.08.
Take C46A A78G: the self-cleavage was 0.17.
Turning to U39G C105A, the self-cleavage amounted to 0.16.
G41C A98G: the self-cleavage stood at 0.57.
G41A A129G: the self-cleavage is 0.61.
As for U39C A140C, the self-cleavage was 1.79.
Then U43C C45A, with 1.19.
Then U43C C45U, with 1.6; and C42U A94G, with 2.27; and C45A A116G, with 1.32.
The value for U39C C128U was 1.42; that for U39C C128A was 0.73.
Turning to C45U A95G, the self-cleavage stood at 1.99.
Turning to G41C A86U, the self-cleavage stood at 0.57.
With C40U A78G, the self-cleavage was found to be 0.44.
With C40U A78U, the self-cleavage stood at 0.32.
As for U43A A56C, the self-cleavage amounted to 0.8.
U43A A56G: the self-cleavage came to 1.86.
Then G41U A86U, with 1.98.
U39C C105U: the self-cleavage worked out at 0.24.
For U43C U124C, the self-cleavage was found to be 1.13.
The value for U43A A91G was 0.55.
On to U43A G83A, for which the self-cleavage stood at 1.97.
As for U39C A114G, the self-cleavage worked out at 0.72.
Turning to G44A A59G, the self-cleavage came to 1.56.
U43C A90G: the self-cleavage came to 0.97.
Turning to U43G A116G, the self-cleavage came out at 0.96.
